Here are results for one substance from PMC8357241.

The subject of the data set is PARP1. In words: fluorescence polarization. The settings on record: EMSA: 20 mM Hepes pH 7.8, 150 mM NaCl, 2 mM MgCl2, 0.5 mM TCEP, 0.05 mg/ml BSA; TIRF same salts with 1 mg/ml BSA, 1 mg/ml beta-casein, 500 nM SYTOX Orange …. Background: Fluorescence polarisation rises when a labelled molecule tumbles more slowly, as on binding a larger partner.

With DNA dumbbell containing a SSB, the equilibrium dissociation constant (Kd) was found to be 71 nM.

By Kd is commonly meant the concentration at which binding is half-saturated.
